From article PMC5004165 come the findings set out here.

The target in this data set is T1, NF-kB p50 homodimer (UniProt P19838).
T1 sequence: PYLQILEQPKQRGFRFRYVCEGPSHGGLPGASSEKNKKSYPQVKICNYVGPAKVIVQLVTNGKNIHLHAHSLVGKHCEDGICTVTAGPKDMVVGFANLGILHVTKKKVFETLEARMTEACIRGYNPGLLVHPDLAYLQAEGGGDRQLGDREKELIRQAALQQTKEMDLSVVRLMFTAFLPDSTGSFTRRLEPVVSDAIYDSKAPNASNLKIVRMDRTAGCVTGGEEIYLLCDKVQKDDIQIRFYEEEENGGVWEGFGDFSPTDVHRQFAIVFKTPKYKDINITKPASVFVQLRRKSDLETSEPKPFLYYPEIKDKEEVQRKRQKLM
The data set can be described thus: SPR. To be noted: EMSA: 10 mM Tris-HCl pH 7.5, 50 mM NaCl, 1 mM DTT, 1 mM EDTA, BSA (printed 10 mg/mL), 1% NP-40, 5% glycerol, poly(dI-dC), 20 C 45 min, SPR: 10 mM Tris-HCl pH 7.; for binding signal (% of unplatinated plateau): steady state. A general note: In EMSA bound probe runs differently from free probe, usually more slowly.

Setting [1] is: BBR3464 adducts, 1 per duplex, global.
Setting [2] is: transplatin adducts, 1 per duplex, global.

Usually Kd stands for a measure of binding affinity in units of concentration. In the case of “CCTACCAAGTCTGAGGGGACTTTCCCAGGC (double strand) [DUPLEX-kB(SPR-BIO) BBR3464]”, under setting [1], the Kd turned out to be 3.99 nM and the binding signal (% of unplatinated plateau) came out at 21.
“CCTACCAAGTCTGAGGGGACTTTCCCAGGC (double strand) [DUPLEX-kB(SPR-BIO) cisplatin]”: the Kd (cisplatin adducts, 1 per duplex, global) was determined as 2.38 nM.
Turning to “CCTACCAAGTCTGAGGGGACTTTCCCAGGC (double strand) [DUPLEX-kB(SPR-BIO) transplatin]”, under setting [2], the binding signal (% of unplatinated plateau) stood at 88 and the Kd was found to be 1.99 nM.
“CCTACCAAGTCTGAGGGGACTTTCCCAGGC (double strand) [DUPLEX-kB(SPR-BIO)]” registered a Kd of 1.96 nM.
